Target: Ssa1 (yeast (S. cerevisiae)) (UniProt P10591)
Sequence (P10591 whole entry): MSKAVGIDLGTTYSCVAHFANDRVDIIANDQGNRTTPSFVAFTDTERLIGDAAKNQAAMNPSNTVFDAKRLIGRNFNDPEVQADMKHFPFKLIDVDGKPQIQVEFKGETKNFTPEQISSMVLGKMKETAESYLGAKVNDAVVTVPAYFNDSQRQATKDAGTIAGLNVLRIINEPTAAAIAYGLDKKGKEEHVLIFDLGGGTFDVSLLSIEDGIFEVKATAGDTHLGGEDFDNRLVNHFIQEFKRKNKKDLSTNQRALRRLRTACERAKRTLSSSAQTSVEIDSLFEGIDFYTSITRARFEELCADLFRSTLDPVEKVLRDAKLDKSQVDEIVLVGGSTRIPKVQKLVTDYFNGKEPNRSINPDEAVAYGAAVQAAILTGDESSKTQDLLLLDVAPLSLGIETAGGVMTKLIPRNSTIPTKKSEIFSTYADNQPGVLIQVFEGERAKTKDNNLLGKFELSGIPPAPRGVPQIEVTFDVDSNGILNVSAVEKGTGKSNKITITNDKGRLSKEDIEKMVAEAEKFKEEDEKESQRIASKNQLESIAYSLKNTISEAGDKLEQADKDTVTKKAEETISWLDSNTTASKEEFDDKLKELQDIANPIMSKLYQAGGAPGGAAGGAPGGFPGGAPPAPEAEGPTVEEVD

renaturation of heat-aggregated GFP by Ssa1-Sis1 (1 µM each); concentration of Sse1-2 against Sse1 WT needed for the same activity; no inhibition up to 2 µM Sse1-2: 20 times
Substance: Sse1-2 variant (N572Y E575A) (from UniProt P32589 1-693) (natural protein)
